This passage reports FRET efficiency results from paper PMC6829862, “Gγ and Gα Identity Dictate a G-Protein Heterotrimer Plasma Membrane Targeting” (Cells, 2019).

The test has as its target T1, mCherry–Gβ1γ2 dimer (UniProt P62873 1-340; P59768 1-71, 20-carbon geranylgeranyl lipid on the cysteine of the C-terminal CaaX motif (said of Gγ2 in general)).
T1 construct: Gβ1 subunit; cDNA in pcDNA3.1+ from UMR cDNA Resource Center; FP cloned at the N-terminus; Gγ2 subunit; source: HEK 293, transiently co-transfected (mCherry–Gβ1 and Gγ2), in living cells; not shown: mCherry, N-terminal, kept
Put plainly: FRET or BRET; FLIM-FRET in living transiently transfected HEK 293 cells at 37 °C; donor Citrine in Gα, acceptor mCherry on Gβ1 with the appropriate Gγ; efficiency E = 1 − τda/τd from the short lifetime component τ1 (donor alone 2.7 ± 0.1 ns), analysed only at the plasma membrane; GppNHp added to the culture did not change the signal. Conditions: partners not purified.

B1: Citrine–Gαs (natural protein)
chain: MGCLGNSKTEDQRNEEKAQREANKKIEKQLQKDKQVYRATHRLLLLGAGESGKSTIVKQMRILHVNGFNGNSDGEKATKVQDIKNNLKEAIETIVAAMSNLVPPVELANPENQFRVDYILSVMNVPDFDFPPEFYEHAKALWEDEGVRACYERSNEYQLIDCAQYFLDKIDVIKQADYVPSDQDLLRCRVLTSGIFETKFQVDKVNFHMFDVGGQRDERRKWIQCFNDVTAIIFVVASSSYNMVIREDNQTNRLQEALNLFKSIWNNRWLRTISVILFLNKQDLLAEKVLAGKSKIEDYFPEFARYTTPEDATPEPGEDPRVTRAKYFIRDEFLRISTASGDGRHYCYPHFTCAVDTENIRRVFNDCRDIIQRMHLRQYELL
notes: Gαs subunit (stimulatory G-protein alpha subunit); cDNA in pcDNA3.1+ from UMR cDNA Resource Center; also called wild-type Gαs; loop-tagged Gαs; source: HEK 293, transiently transfected; in living cells (FLIM-FRET) and in cell lysate (pull-down); not shown: Citrine, internal (in place of the loop Glu71-Ser82), kept
As for B1, the FRET efficiency came out at 19.7%.
